pKd: −log10 of the molar value.
Assays:
[1] = target: PSB‐II^142–236 construct (peptide‐substrate–binding domain of the α‐II subunit of human collagen prolyl 4‐hydroxylase II) (human) (UniProt O15460); assay: ITC; 3 mM peptide titrated into 50 μM PSB‐II in the cell; 20 mM Tris, 50 mM NaCl, 50 mM glycine, pH 8.0; 25°C; one‐set‐of‐sites model with fixed stoichiometry (n = 1); three measurements
[2] = target: PSB‐I^143–238 construct (peptide‐substrate–binding domain of the α‐I subunit of human collagen prolyl 4‐hydroxylase I) (human) (UniProt P13674); assay: ITC; 3 mM peptide titrated into 50 μM PSB‐I^143–238 in the cell; 20 mM Bis‐Tris, 100 mM glycine, pH 6.8; 25°C; one‐set‐of‐sites model with fixed stoichiometry (n = 1); three measurements
PSB‐I^143–238 construct (peptide‐substrate–binding domain of the α‐I subunit of human collagen prolyl 4‐hydroxylase I) (human), sequence (P13674 160-255): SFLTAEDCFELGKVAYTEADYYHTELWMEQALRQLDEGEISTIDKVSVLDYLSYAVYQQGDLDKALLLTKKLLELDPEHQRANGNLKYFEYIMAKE

PSB‐II^142–236 construct (peptide‐substrate–binding domain of the α‐II subunit of human collagen prolyl 4‐hydroxylase II) (human), sequence (O15460 163-257): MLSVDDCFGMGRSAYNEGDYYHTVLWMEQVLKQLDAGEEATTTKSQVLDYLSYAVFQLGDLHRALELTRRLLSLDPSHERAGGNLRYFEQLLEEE

pKd [1]: 4.58
pKd [2]: 4.10
dH [2]: -12.7 kcal/mol
Substance: POG‐PAG‐POG peptide

From PMC12433258, “Binding Differences of the Peptide‐Substrate–Binding Domain of Collagen Prolyl 4‐Hydroxylases I and II for Proline‐ and Hydroxyproline‐Rich Peptides” (Proteins, 2025)
